In US20180273626A1 (published 2018):

Biological target: T1, FcεRIα (human, UniProt P12319 26-201)
T1 chain: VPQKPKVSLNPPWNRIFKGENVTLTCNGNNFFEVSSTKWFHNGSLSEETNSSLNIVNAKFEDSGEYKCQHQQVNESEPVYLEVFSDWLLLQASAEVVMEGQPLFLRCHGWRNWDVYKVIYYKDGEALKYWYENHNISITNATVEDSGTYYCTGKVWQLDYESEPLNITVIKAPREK
Assay: SPR; mammalian derived

Kd: 2.26 nM
B1: IgE-R419N-Fc3-4 (other)
chain: CADSNPRGVSAYLSRPSPFDLFIRKSPTITCLVVDLAPSKGTVNLTWSRASGKPVNHSTRKEEKQRNGTLTVTSTLPVGTRDWIEGETYQCNVTHPHLPRALMRSTTKTSGPRAAPEVYAFATPEWPGSRDKRTLACLIQNFMPEDISVQWLHNEVQLPDARHSTTQPRKTKGSGFFVFSRLEVTRAEWEQKDEFICRAVHEAASPSQTVQRAVSVNP
modifications: additional N-linked glycan at N419 (Asn-92 of SEQ ID NO: 2)
